According to patent publication US20140178332A1 (published 2014):

What was measured:
[1] = biological target: T1, recombinant purified cyno IL-12 p70 (cynomolgus monkey); assay: cell-based or functional assay
T1 chain 1: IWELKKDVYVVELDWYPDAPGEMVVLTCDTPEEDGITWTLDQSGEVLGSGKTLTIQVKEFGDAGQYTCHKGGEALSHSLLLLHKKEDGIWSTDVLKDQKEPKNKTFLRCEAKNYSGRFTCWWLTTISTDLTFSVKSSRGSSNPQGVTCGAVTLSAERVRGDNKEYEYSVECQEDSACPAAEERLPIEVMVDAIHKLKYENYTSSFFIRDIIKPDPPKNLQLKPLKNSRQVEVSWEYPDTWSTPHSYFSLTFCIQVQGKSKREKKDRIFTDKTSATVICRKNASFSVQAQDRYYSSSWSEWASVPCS
T1 chain 2: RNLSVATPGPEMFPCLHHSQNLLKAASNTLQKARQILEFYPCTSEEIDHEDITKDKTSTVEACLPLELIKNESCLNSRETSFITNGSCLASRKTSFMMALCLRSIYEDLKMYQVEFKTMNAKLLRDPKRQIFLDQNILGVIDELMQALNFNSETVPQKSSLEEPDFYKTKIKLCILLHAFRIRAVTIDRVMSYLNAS

[2] = biological target: T2, recombinant purified human IL-12 p70 (human, UniProt P29459 23-219); assay: cell-based or functional assay
T2 sequence 1: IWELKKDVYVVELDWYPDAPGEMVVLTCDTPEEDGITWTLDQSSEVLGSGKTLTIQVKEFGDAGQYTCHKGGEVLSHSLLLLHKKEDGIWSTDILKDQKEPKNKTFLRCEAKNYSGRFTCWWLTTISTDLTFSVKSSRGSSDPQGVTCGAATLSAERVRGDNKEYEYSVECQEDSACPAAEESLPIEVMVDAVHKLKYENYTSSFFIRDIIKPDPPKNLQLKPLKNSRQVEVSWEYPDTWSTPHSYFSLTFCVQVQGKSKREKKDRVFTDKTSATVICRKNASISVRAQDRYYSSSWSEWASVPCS
T2 sequence 2: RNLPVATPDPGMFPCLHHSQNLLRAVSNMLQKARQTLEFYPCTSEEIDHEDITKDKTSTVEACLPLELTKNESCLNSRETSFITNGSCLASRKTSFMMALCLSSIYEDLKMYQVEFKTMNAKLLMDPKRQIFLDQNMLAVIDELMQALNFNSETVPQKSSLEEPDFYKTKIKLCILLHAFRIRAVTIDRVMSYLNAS

[3] = biological target: T2, recombinant purified human IL-12 p70; assay: SPR (Biacore), mAb captured on anti-mouse IgG Fc, IL-12 p70 as analyte
Method: The BIACORE assay (Biacore, Inc, Piscataway, N.J.) determines the affinity of antibodies with kinetic measurements of on-, off-rate constants. Binding of antibodies to recombinant purified human IL-12 p70 or recombinant purified human IL-12 p40 were determined by surface plasmon resonance-based measurements with a Biacore® 3000 instrument (Biacore® AB, Uppsala, Sweden) using running HBS-EP (10 mM HEPES [pH 7.4], 150 mM NaCl, 3 mM EDTA, and 0.005% surfactant P20) at 25° C. All chemicals were obtained from Biacore® AB (Uppsala, Sweden) or otherwise from a different source as described in the text. Approximately 5000 RU of goat anti-mouse IgG, (Fcγ), fragment specific polyclonal antibody (Pierce Biotechnology Inc, Rockford, Ill.) diluted in 10 mM sodium acetate (pH 4.5) was directly immobilized across a CM5 research grade biosensor chip using a standard amine coupling kit according to manufacturer's instructions and procedures at 25 μg/ml. Unreacted moieties on the biosensor surface were blocked with ethanolamine. Modified carboxymethyl dextran surface in flowcell 2 and 4 was used as a reaction surface. Unmodified carboxymethyl dextran without goat anti-mouse IgG in flow cell 1 and 3 was used as the reference surface. For kinetic analysis, rate equations derived from the 1:1 Langmuir binding model were fitted simultaneously to association and dissociation phases of all eight injections (using global fit analysis) with the use of Biaevaluation 4.0.1 software. Purified antibodies were diluted in HEPES-buffered saline for capture across goat anti-mouse IgG specific reaction surfaces. Mouse antibodies to be captured as a ligand (25 μg/ml) were injected over reaction matrices at a flow rate of 5 μl/min. The association and dissociation rate constants, kₒₙ (unit M⁻¹ s⁻¹) and koff (unit s⁻¹) were determined under a continuous flow rate of 25 μl/min. Rate constants were derived by making kinetic binding measurements at ten different antigen concentrations ranging from 10-200 nM. The equilibrium dissociation constant (unit M) of the reaction between mouse antibodies and recombinant purified human IL-12 p70 or recombinant purified human IL-12 p40 was then calculated from the kinetic rate constants by the following formula: KD=koff/kₒₙ. Binding is recorded as a function of time and kinetic rate constants are calculated.

[4] = biological target: T2, recombinant purified human IL-12 p70; assay: competition ELISA on coated human IL-12, competitor of 0.8 µg/ml biotinylated 8E1, Expt. 1
Method: (§1) MaxiSorp ELISA plates (Nalge Nunc International) were coated overnight at 4° C. with 100 μl/well of 1.0 μg/ml human IL-12 in 0.2 M sodium carbonate-bicarbonate buffer, pH 9.4, washed with Wash Buffer (PBS containing 0.1% Tween 20), and blocked for 1 hr at room temperature with 300 μl/well of SuperBlock Blocking Buffer in TBS (Pierce Chemical Company). […] As isotype controls, 100 μl/well of 100 μg/ml mouse IgG 1/κ (MuFd79) or humanized IgG1/κ (HuFd79) monoclonal antibodies in ELISA buffer was used. As a no-competitor control, 100 μl/well of ELISA Buffer was used. After incubating the plates for 1 hr at room temperature, and washing with Wash Buffer, bound antibodies were detected using 100 μl/well of 1 μg/ml HRP-conjugated streptavidin (Pierce Chemical Company) in ELISA buffer. After incubating for 1 hr at room temperature, and washing with Wash Buffer, color development was performed by adding 100 μl/well of ABTS Peroxidase Substrate/Peroxidase Solution B (KPL, Inc.). After incubating for 5 min at room temperature, color development was stopped by adding 50 μl/well of 2% oxalic acid. Absorbance was read at 415 nm.
(§2) The affinity of 8E1.4, 8E1.5 and 8E1.6 to human IL-12 was analyzed by competition ELISA as described above.

[5] = biological target: T2, recombinant purified human IL-12 p70; assay: competition ELISA on coated human IL-12, competitor of 0.8 µg/ml biotinylated 8E1, average
Method: as §1, §2

Average IC50 (nM) Cyno IL-12, PHA blast IFN-γ assay [1]: 0.18 nM
Average IC50 (nM) Human IL-12, PHA blast IFN-γ assay [2]: 0.19 nM
Kd [3]: 74 pM
koff [3]: 5.1e-05 s⁻¹
kon [3]: 690000 M⁻¹ s⁻¹
IC50 [4]: 2.63 µg/mL
IC50 [5]: 2.56 µg/mL
B1: murine anti-human IL-12p40 monoclonal antibody 8E1 (antibody, V domains shown)
VH: EVKLVESGGGLVQPGGSRKLSCAASGFTFSDYGMVWVRQAPGKGLEWVASISSGSSNIYYADTVKGRFTISRDDPNNTLFLQMRSLRSEDTAMYYCARNPYWGQGTTLTVSS
VL: DIVMTQSQKFMSTSVGDRVSVTCKASQNVGTNVAWYQQKPGQSPKGLIYSASHRYSGVPDRFAGSGSGTDFTLTISNVQSEDLAEYFCQQYNSYPLTFGGGTKLELKR
notes: Murine mAb; also called biotinylated 8E1
